Laboratory results as given in the supplement of paper PMC10567573.

B1: FAM46C (parent)
chain: FDHLQNRLIATKNPEEIRGGGLLK
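Further: lentivirally expressed fusions sorted by FACS into six bins by GFP to DsRed ratio, PSI derived from sequencing read proportions per bin multiplied by bin number.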

Variants of: B1
Experiment: protein stability index of a GFP-peptide fusion (GPS, HEK-293T) (PSI 1-6); higher = more stable
Conditions: c terminus: a fixed tail appended
Work on FDHLQNRLNATKNPEEIRGGGLLK [I9N] yielded a protein stability index of 4.06. In the case of FDHLQNRLRATKNPEEIRGGGLLK [I9R], the protein stability index is reported as 4.05. FDHLQNRLSATKNPEEIRGGGLLK [I9S] gave a protein stability index of 3.98. FDHLQNRLWATKNPEEIRGGGLLK [I9W] showed a protein stability index of 2.16. FDHLQNRLTATKNPEEIRGGGLLK [I9T] showed a protein stability index of 4.4. FDHLQNRLQATKNPEEIRGGGLLK [I9Q] showed a protein stability index of 4.57. FDHLQNRLYATKNPEEIRGGGLLK [I9Y] showed a protein stability index of 3.56. FDHLQNRLIATKNPEEICGGGLLK [R18C] showed a protein stability index of 4.44. FDHLQNRLIATKNPEEIQGGGLLK [R18Q] showed a protein stability index of 4.37. FDHLQNRLIATKNPEEIVGGGLLK [R18V] gave a protein stability index of 3.64. With FDHLQNRLIATKNPEEILGGGLLK [R18L] the protein stability index was 3.39. Work on FDHLQNRLIATKNPEEIDGGGLLK [R18D] yielded a protein stability index of 4.42. With FDHLQNRLIATKNPEEITGGGLLK [R18T] the protein stability index was 3.2. With FDHLQNRLIATKNPEEISGGGLLK [R18S] the protein stability index was 3.77. FDHLQNRLIATKNPEEIWGGGLLK [R18W] showed a protein stability index of 2.58. FDHLQNRLIATKNPEEIMGGGLLK [R18M] gave a protein stability index of 3.03. Work on FDHLQNRLIATKNPEEIYGGGLLK [R18Y] yielded a protein stability index of 3.58. Variant FDHLQNRLIATKNPEEIEGGGLLK [R18E] has a protein stability index of 4.67. Work on FDHLQNRLIATKNPEEIIGGGLLK [R18I] yielded a protein stability index of 3.32. FDHLQNRLIATKNPEEIKGGGLLK [R18K] showed a protein stability index of 4.05. For FDHLQNRLIATKNPEEIAGGGLLK [R18A], the protein stability index was 3.75. Variant FDHLQNRLIATKNPEEINGGGLLK [R18N] has a protein stability index of 3.83. FDHLQNRLIATKNPEEIFGGGLLK [R18F] gave a protein stability index of 2.98. In the case of FDHLQNRLIATKNPEEIPGGGLLK [R18P], the protein stability index is reported as 4.26. FDHLQNRLIATKNPEEERGGGLLK [I17E] showed a protein stability index of 4.26. For FDHLQNRLIATKNPEEQRGGGLLK [I17Q], the protein stability index was 4.86. Work on FDHLQNRLIATKNPEESRGGGLLK [I17S] yielded a protein stability index of 4.35. FDHLQNRLIATKNPEERRGGGLLK [I17R] gave a protein stability index of 3.86. For FDHLQNRLIATKNPEETRGGGLLK [I17T], the protein stability index was 4.01. Work on FDHLQNRLIATKNPEEDRGGGLLK [I17D] yielded a protein stability index of 4.52. FDHLQNRLIATKNPEEKRGGGLLK [I17K] gave a protein stability index of 3.39. FDHLQNRLIATKNPEEMRGGGLLK [I17M] gave a protein stability index of 3.82. FDHLQNRLIATKNPEECRGGGLLK [I17C] showed a protein stability index of 4.18. FDHLQNRLIATKNPEEHRGGGLLK [I17H] showed a protein stability index of 4.28. Variant FDHLQNRLIATKNPEEYRGGGLLK [I17Y] has a protein stability index of 3.58. For FDHLQNRLIATKNPEEPRGGGLLK [I17P], the protein stability index was 3.55. In the case of FDHLQNRLIATKNPEEARGGGLLK [I17A], the protein stability index is reported as 4.4. FDHLQNRLIATKNPEENRGGGLLK [I17N] gave a protein stability index of 4.27. With FDHLQNRLIATKNPEEFRGGGLLK [I17F] the protein stability index was 3.46. For FDHLQNRLIATKNPEEWRGGGLLK [I17W], the protein stability index was 3.44. With FDHLQNRLIATTNPEEIRGGGLLK [K12T] the protein stability index was 3.75. Work on FDHLQNRLIATVNPEEIRGGGLLK [K12V] yielded a protein stability index of 4.38. For FDHLQNRLIATCNPEEIRGGGLLK [K12C], the protein stability index was 2.9. Work on FDHLQNRLIATNNPEEIRGGGLLK [K12N] yielded a protein stability index of 3.82. For FDHLQNRLIATLNPEEIRGGGLLK [K12L], the protein stability index was 2.65. Work on FDHLQNRLIATHNPEEIRGGGLLK [K12H] yielded a protein stability index of 3.1. With FDHLQNRLIATMNPEEIRGGGLLK [K12M] the protein stability index was 3.37. Variant FDHLQNRLIATQNPEEIRGGGLLK [K12Q] has a protein stability index of 3.61. FDHLQNRLIATYNPEEIRGGGLLK [K12Y] showed a protein stability index of 3.24. For FDHLQNRLIATENPEEIRGGGLLK [K12E], the protein stability index was 3.71. For FDHLQNRLIATFNPEEIRGGGLLK [K12F], the protein stability index was 2.59. In the case of FDHLQNRLIATANPEEIRGGGLLK [K12A], the protein stability index is reported as 3.68. Work on FDHLQNRLIATPNPEEIRGGGLLK [K12P] yielded a protein stability index of 4.24. FDHLQNRLIATGNPEEIRGGGLLK [K12G] gave a protein stability index of 4. Work on FDHLQNRLIATKNVEEIRGGGLLK [P14V] yielded a protein stability index of 3.25. Variant FDHLQNRLIATKNMEEIRGGGLLK [P14M] has a protein stability index of 3.66. In the case of FDHLQNRLIATKNQEEIRGGGLLK [P14Q], the protein stability index is reported as 3.54. With FDHLQNRLIATKNIEEIRGGGLLK [P14I] the protein stability index was 2.39. Work on FDHLQNRLIATKNYEEIRGGGLLK [P14Y] yielded a protein stability index of 3.2. In the case of FDHLQNRLIATKNCEEIRGGGLLK [P14C], the protein stability index is reported as 3.74. Work on FDHLQNRLIATKNDEEIRGGGLLK [P14D] yielded a protein stability index of 3.87. With FDHLQNRLIATKNNEEIRGGGLLK [P14N] the protein stability index was 4.12. For FDHLQNRLIATKNWEEIRGGGLLK [P14W], the protein stability index was 2.59. FDHLQNRLIATKNGEEIRGGGLLK [P14G] gave a protein stability index of 4.2. With FDHLQNRLIATKNTEEIRGGGLLK [P14T] the protein stability index was 3.84. Variant FDHLQNRLIATKNLEEIRGGGLLK [P14L] has a protein stability index of 3.87. FDHLQNRLIATKNSEEIRGGGLLK [P14S] gave a protein stability index of 3.49. With FDHLQNRLIATKNREEIRGGGLLK [P14R] the protein stability index was 4. FDHLQNRLIATKNAEEIRGGGLLK [P14A] gave a protein stability index of 3.69. With FDHLQNRLIATKNFEEIRGGGLLK [P14F] the protein stability index was 2.97. For FDHLQNRLIATKNKEEIRGGGLLK [P14K], the protein stability index was 3.77. In the case of FDHLQNRLIATKKPEEIRGGGLLK [N13K], the protein stability index is reported as 4.03. In the case of FDHLQNRLIATKCPEEIRGGGLLK [N13C], the protein stability index is reported as 3.15. Work on FDHLQNRLIATKWPEEIRGGGLLK [N13W] yielded a protein stability index of 3.14. Variant FDHLQNRLIATKGPEEIRGGGLLK [N13G] has a protein stability index of 2.86. FDHLQNRLIATKTPEEIRGGGLLK [N13T] showed a protein stability index of 3.64. For FDHLQNRLIATKMPEEIRGGGLLK [N13M], the protein stability index was 2.81. Variant FDHLQNRLIATKQPEEIRGGGLLK [N13Q] has a protein stability index of 3.86. For FDHLQNRLIATKHPEEIRGGGLLK [N13H], the protein stability index was 2.77. Variant FDHLQNRLIATKFPEEIRGGGLLK [N13F] has a protein stability index of 2.96. Work on FDHLQNRLIATKIPEEIRGGGLLK [N13I] yielded a protein stability index of 3.47. In the case of FDHLQNRLIATKEPEEIRGGGLLK [N13E], the protein stability index is reported as 4.1. FDHLQNRLIATKSPEEIRGGGLLK [N13S] showed a protein stability index of 3.62. With FDHLQNRLIAMKNPEEIRGGGLLK [T11M] the protein stability index was 3.7. FDHLQNRLIANKNPEEIRGGGLLK [T11N] gave a protein stability index of 4.01. FDHLQNRLIAAKNPEEIRGGGLLK [T11A] gave a protein stability index of 3.55. With FDHLQNRLIAEKNPEEIRGGGLLK [T11E] the protein stability index was 4.71. In the case of FDHLQNRLIALKNPEEIRGGGLLK [T11L], the protein stability index is reported as 4.29. Variant FDHLQNRLIAWKNPEEIRGGGLLK [T11W] has a protein stability index of 3.98. Variant FDHLQNRLIAQKNPEEIRGGGLLK [T11Q] has a protein stability index of 4.2. For FDHLQNRLIARKNPEEIRGGGLLK [T11R], the protein stability index was 3.97. Variant FDHLQNRLIAFKNPEEIRGGGLLK [T11F] has a protein stability index of 3.73. Variant FDHLQNRLIASKNPEEIRGGGLLK [T11S] has a protein stability index of 3.56. FDHLQNRLIAVKNPEEIRGGGLLK [T11V] gave a protein stability index of 3.74.
